# Results taken from paper PMC5457685, “Pellino-1 promotes lung carcinogenesis via the stabilization of Slug and Snail through K63-mediated polyubiquitination” (Cell Death and Differentiation, 2016).
# T1: His-tagged Pellino-1 (human, UniProt Q96FA3 1-418)
# T1 construct: Pellino-1, human; Pellino-1 FL subcloned into a His6-tagged fusion plasmid; The pull-down text names only 'His-Pellino-1'; also called His-Pellino-1; source: purified His-tagged protein
# T1 sequence (looked up): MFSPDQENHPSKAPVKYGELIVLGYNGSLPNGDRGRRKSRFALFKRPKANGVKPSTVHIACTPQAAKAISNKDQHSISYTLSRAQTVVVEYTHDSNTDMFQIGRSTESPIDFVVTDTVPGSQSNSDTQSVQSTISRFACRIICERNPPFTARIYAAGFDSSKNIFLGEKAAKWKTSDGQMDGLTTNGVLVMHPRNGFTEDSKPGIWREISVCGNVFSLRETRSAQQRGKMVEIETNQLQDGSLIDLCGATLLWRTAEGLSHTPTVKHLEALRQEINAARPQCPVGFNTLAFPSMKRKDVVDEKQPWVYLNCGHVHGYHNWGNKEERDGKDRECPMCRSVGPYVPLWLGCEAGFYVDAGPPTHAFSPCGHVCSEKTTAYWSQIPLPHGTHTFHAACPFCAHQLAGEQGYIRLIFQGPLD
# Molecular target: T1, His-tagged Pellino-1
# Test: pull-down; GST-Slug or GST-Snail adsorbed onto glutathione beads, incubated with purified His-tagged Pellino-1; bound proteins immunoblotted
# Conditions: both partners purified
binder,measurement,value
"GST–Slug fusion protein (natural protein, human, UniProt O43623 1-268, looked up, Slug, human; pGEX-KG vector encoding GST-tagged human Slug (gift); source: GST fusion protein (pGEX-KG vector) adsorbed onto glutathione beads) MPRSFLVKKHFNASKKPNYSELDTHTVIISPYLYESYSMPVIPQPEILSSGAYSPITVWTTAAPFHAQLPNGLSPLSGYSSSLGRVSPPPPSDTSSKDHSGSESPISDEEERLQSKLSDPHAIEAEKFQCNLCNKTYSTFSGLAKHKQLHCDAQSRKSFSCKYCDKEYVSLGALKMHIRTHTLPCVCKICGKAFSRPWLLQGHIRTHTGEKPFSCPHCNRAFADRSNLRAHLQTHSDVKKYQCKNCSKTFSRMSLLHKHEESGCCVAH",binding result,binds
